Consider 6 molecules from patent US20190112365A1 (EISAI R AND D MANAGEMENT, published 2019).

Experiment [1] concerns the target T1, HVPGG site of Tau (15-mer array peptides containing HVPGG) (human).
T1 peptide: HVPGG
The experiment is described as follows: peptide microarray; HVPGG site of the fourth repeat region against HQPGG (repeat region 1). Here is the method:
(§1) The diluted antibody was incubated on the chip for 16 hours at 4° C. with shaking at 140 rpm. Primary antibody was removed and the chip was washed in PBS (pH 7.4)/0.05% Tween 20. Wash buffer was removed and goat anti-mouse IgG (H+L) DyLight™680 (1:5000) and an anti-HA tag DyLight™ 800 (1:2000) in the same buffer as the primary antibody was then incubated for 45 minutes at room temperature on the chip. Detection antibody was removed and the chip was washed once again as previously. Fluorescence images were acquired on the LI-COR Odyssey™ Imaging System and the microarray data was finally analyzed using the PepSlide™ Analyser software.

Experiment [2] addresses T2, Human Tau 2N4R, wild type, recombinant full length (human, UniProt P10636 2-758).
T2 construct: Full length 2N4R isoform; monomer in SPR and ELISA; heparin-induced aggregates or seeds in the functional assays; also called Tau441; Tau-441
Kind of experiment: SPR BIAcore, mAb captured by anti-human IgG, Tau flowed, 1:1 Langmuir. On the procedure: (§2) All experiments were performed using a BIAcore™ T-100 instrument (GE Healthcare). 10 μL anti-human IgG (monoclonal mouse anti-human Fc) from human antibody capture kit (GE Healthcare) was diluted to 25 μL/mL in 200 μL final immobilization buffer (10 mM sodium acetate, pH 5.0). The flow rate was set to 5 μL/min, flowpath 1. Fifty μL N-hydroxysuccinamide (NETS) and 50 μL 1-ethyl-3-(3-dimethylaminopropyl) carbidiimide (EDC) were mixed and injected for 420 sec to activate the CM5 chip surface. The diluted antibody was injected for 360 seconds followed by 1 M ethanolamine for 420 seconds. The flowpath was then switched to flowpath 2. A new EDC/NHS mixture was prepared and the procedure was repeated for flow cell 2. The surface was conditioned by 2 injections of 30 sec using flowpath 1, 2 at 30 μL/min of 3M MgCl₂. For the anti-mouse surface, 10 μL anti-mouse IgG (polyclonal rabbit anti-mouse IgG) from mouse antibody capture kit (GE Healthcare) was diluted to 30 μL/mL in 324 μL final immobilization buffer (10 mM sodium acetate, pH 5.0). The flow rate was set to 5 μL/min, flowpath 3. Fifty μL NHS and 50 μL EDC were mixed and injected for 420 sec to activate the chip surface. The diluted antibody was injected for 420 sec. 1 M ethanolamine was injected for 420 sec. Flow path was switched to flowpath 4. A new EDC/NHS mixture was prepared and the procedure was repeated for flow cell 4. The surface was conditioned by 2 injections of 30 sec using flowpath 3, 4 at 30 μL/min of 10 mM glycine, pH 1.7.
(§3) Binding of humanized and mouse antibodies were analyzed by surface plasmon resonance (BIAcore™) to determine their relative association rates (kₐ), dissociation rates (kd), and equilibrium binding constants (KD). Anti-mouse or anti-human antibodies were immobilized on a CM5 chip and sample mAbs were captured on the chip. 2N4R Tau was flowed over the chip and binding observed. The binding constants kₐ, kd, and KD were determined using a 1:1 Langmuir fitting model.
A general note: Surface plasmon resonance follows binding to a sensor surface in real time, without labels.

Experiment [3] concerns the target T1, HVPGG site of Tau (15-mer array …). The experiment is described as follows: peptide microarray; HVPGG site of the fourth repeat region against HKPGG (repeat region 3). Here is the method: as §1
The target in experiment [4] is T2, Human Tau 2N4R, wild type, recombinant …. The experiment is described as follows: SPR, streptavidin capture; against ms7G6. On the procedure:
(§4) 400 μg of each antibody was diluted to 2 mg/mL and buffer-exchanged into 0.1 M sodium bicarbonate, pH 8.3 using 0.5 mL Zeba™ 40 kDa MWCO desalting columns (Thermo). NHS-PEG4-biotin, prepared immediately before use by dissolving in water to a 20 mM final stock concentration, was added to antibodies at a 5:1 molar ratio (biotin:MAb) and conjugated for 1 hr at room temperature. Excess biotin was removed by two sequential buffer exchanges into 1×DPBS using 0.5 mL Zeba™ 40 kDa MWCO desalting columns. For the BIAcore™ assay, antibodies were diluted to 2 μg/mL in PBS-P+/0.2% BSA (the same preparation used for the running buffer), centrifuged at 14,000 g for 5 min at room temperature, and the supernatant transferred to a new tube. Injection time was subsequently determined for each antibody to achieve a capture level of ˜225 RU.
(§5) Biotinylated humanized and mouse mAbs were captured on a streptavidin-coated chip and kₐ, kd, and KD were determined for binding to Tau (Table 11). […] The affinity of 7G6-HCzu8-LCzu6, 7G6-HCzu24-LCzu15, 7G6-HCzu24-LCzu18, 7G6-HCzu25-LCzu15, and 7G6-HCzu25-LCzu18 were all similar.

The target is the same in experiment [5]. The experiment is described as follows: SPR BIAcore, biotinylated mAb on streptavidin (CAP) chip, single cycle, 1:1 Langmuir. On the procedure: as §4, §5
In experiment [6] the target is T1, HVPGG site of Tau (15-mer array …). Kind of experiment: peptide microarray; HVPGG site of the second repeat region against HQPGG (repeat region 1). Here is the method:
as §1

Experiment [7] addresses T2, Human Tau 2N4R, wild type, recombinant …. The experiment is described as follows: SPR BIAcore, anti-human capture, monomeric Tau, 1:1 Langmuir. On the procedure: as §2
Tau binding for humanized mAbs was analyzed by BIAcore™ in two different formats. The first format was performed as above, i.e. mAbs were captured with an immobilized species-specific anti-Fc antibody. […] In the second format, biotinylated mAbs were captured on a streptavidin-coated chip. This latter format allowed direct comparison of Tau binding affinity between humanized and the parental mouse antibody since the capture method was identical.
The final humanized mAbs were analyzed by BIAcore™ to determine the kₐ, kd, and KD for binding to Tau as above (Table 10).

For experiment [8], the target named is T1, HVPGG site of Tau (15-mer array …). Kind of experiment: peptide microarray; HVPGG site of the second repeat region against HKPGG (repeat region 3). On the procedure: as §1
For experiment [9], the target named is T2, Human Tau 2N4R, wild type, recombinant …. The experiment is described as follows: SPR BIAcore, mAb captured by anti-mouse IgG, Tau flowed, 1:1 Langmuir. On the procedure: as §2
as §3, with “BIAcore™” for “surface plasmon resonance (BIAcore™)”, “(ka),” for “(kₐ),”, “model. Both 7G6-HCzu12-based mAbs had similar kₐ and kd values (Table 8). However, the kₐ of 7G6-HCzu11 was decreased, though the kd was unaffected. Therefore, human residues in the Vh3 framework impact binding to Tau.” for “model.”

For experiment [10] the target is unchanged. Described as above. On the procedure: as §2
as §3, with “BIAcore™” for “surface plasmon resonance (BIAcore™)”, “(ka),” for “(kₐ),”, “model. Both 7G6-HCzu12-based mAbs had similar kₐ and kd values (Table 8). However, the kₐ of 7G6-HCzu11 was decreased, though the kd was unaffected. Therefore, human residues in the Vh3 framework impact binding to Tau.” for “model.”
This is another data set of the same source.

Positions count from the first letter of the chain named.

T2 sequence (P10636 other isoform, or with tags, fused parts or gaps limits assumed): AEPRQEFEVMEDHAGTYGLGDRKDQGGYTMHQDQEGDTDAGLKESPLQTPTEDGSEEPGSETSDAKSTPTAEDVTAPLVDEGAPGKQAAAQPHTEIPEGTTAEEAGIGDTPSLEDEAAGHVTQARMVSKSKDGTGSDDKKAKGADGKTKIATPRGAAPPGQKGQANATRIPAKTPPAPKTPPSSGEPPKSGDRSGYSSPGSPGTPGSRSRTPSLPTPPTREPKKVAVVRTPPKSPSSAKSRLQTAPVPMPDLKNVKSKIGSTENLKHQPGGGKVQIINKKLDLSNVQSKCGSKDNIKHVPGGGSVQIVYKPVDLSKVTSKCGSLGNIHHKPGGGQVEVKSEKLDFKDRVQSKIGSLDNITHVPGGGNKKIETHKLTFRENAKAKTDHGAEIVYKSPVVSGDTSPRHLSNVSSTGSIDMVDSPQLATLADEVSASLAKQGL

B1: 7G6-HCzu8-LCzu6 (antibody, human IgG1, kappa, V domains shown)
VH: QVQLVQSGAEVKKPGASVKVSCKASGYTFTTYWITWVRQAPGQGLEWMGDIYPGSSISNYAQKFQGRVTMTRDTSTSTVYMELSSLRSEDTAVYYCAREDGYDAWFAYWGQGTLVTVSS
VL: DVVMTQSPLSLPVTLGQPASISCRSSQSILHSNGNTYLEWYQQRPGQSPRLLISKVSNRFSGVPDRFSGSGSGTDFTLKISRVEAEDVGVYYCFQGSHVPFTFGQGTKLEIKR
modifications: N-terminal pyroglutamic acid
notes: humanized, human IgG1 kappa; also called 7G6-HCzu8-LCzu6-HEK; ATCC PTA-124523
By Kd is commonly meant the equilibrium constant for the complex coming apart. As a reminder, the koff is the first-order rate constant of dissociation. What is called kon is the second-order rate constant of association. B1: the “fold preference in binding (average signal intensities)” value in experiment [1] was 99 fold; in experiment [3], 95 fold; in experiment [6], 108 fold; in experiment [8], 104 fold. The Kd amounted to 0.0968 nM in experiment [2], 0.0915 nM in experiment [5] and 0.15 nM in experiment [7]. The koff in experiment [2] is 0.00021 s⁻¹; in [5], 0.000258 s⁻¹; in experiment [7], 0.00022 s⁻¹. In addition, the kon in [2] came out at 2.17e+06 M⁻¹ s⁻¹; in [5], 2.82e+06 M⁻¹ s⁻¹; in experiment [7], 1.49e+06 M⁻¹ s⁻¹. Moreover, the “fold drop in affinity” value in experiment [4] is approximately 1.4 fold.

B2: 7G6-HCzu24-LCzu15 (antibody, human IgG1, kappa)
heavy: not shown
light: DVQMTQSPSSLSASVGDRVTITCRSSQSILHSNGNTYLEWYQQKPGKAPKLLISKVSNRFSGVPSRFSGSGSGTDFTLTISSLQPEDFATYYCFQGSHVPFTFGQGTKLEIKRTVAAPSVFIFPPSDEQLKSGTASVVCLLNNFYPREAKVQWKVDNALQSGNSQESVTEQDSKDSTYSLSSTLTLSKADYEKHKVYACEVTHQGLSSPVTKSFNRGEC
notes: humanized, human IgG1 kappa
As for B2, in [4], the “fold drop in affinity” value is approximately 1.4 fold. In experiment [5], the Kd amounted to 0.0898 nM, the koff is 0.000487 s⁻¹ and the kon is 5.42e+06 M⁻¹ s⁻¹. For the same molecule, in [7], the Kd came to 0.13 nM, the dissociation rate constant (koff) is 0.00011 s⁻¹ and the kon is 809000 M⁻¹ s⁻¹.

B3: 7G6-HCzu25-LCzu15 (antibody, human IgG1, kappa)
heavy: not shown
light: B2 light
notes: humanized, human IgG1 kappa
In the case of B3, in experiment [4], the “fold drop in affinity” value was approximately 1.4 fold. In experiment [5], the dissociation constant (Kd) is 0.0998 nM, the koff turned out to be 0.00027 s⁻¹ and the kon was 2.71e+06 M⁻¹ s⁻¹. For the same molecule, in [7], the Kd was determined as 0.13 nM, the koff came out at 0.00013 s⁻¹ and the kon turned out to be 985000 M⁻¹ s⁻¹.

B4: 7G6-HCzu24-LCzu18 (antibody, human IgG1, kappa)
heavy: not shown
light: B2 light with V2I
notes: humanized, human IgG1 kappa
On to B4, for which the “fold drop in affinity” value in experiment [4] is approximately 1.4 fold. In [5], the Kd turned out to be 0.0797 nM, the koff worked out at 0.000304 s⁻¹ and the kon amounted to 3.81e+06 M⁻¹ s⁻¹. Moreover, in experiment [7], the Kd is 0.09 nM, the koff came out at 9e-05 s⁻¹ and the kon came to 948000 M⁻¹ s⁻¹.

B5: recombinant ms7G6, mouse IgG2b (antibody, V domains shown)
VH: QVQLLQPGAELVKPGASVIMSCKASGYTFTTYWITWVKQRPGQGLEWIGDIYPGSSICNYNEKFKSKATLTVDTSSSTAYMQLNSLTSEDSAVYYCAREDGYDAWFAYWGQGTLVTVSA
VL: DVLMTQTPLSLPVSLGDQASISCRSSQSILHSNGNTYLEWYLQKPGQSPKLLICKVSNRFSGVPDRFSGSGSGTDFTLKISRVEAEDLGVYYCFQGSHVPFTFGSGTKLEIK
notes: Recombinant material, mouse IgG2b
As for B5, in [9], the Kd was determined as 4.17 nM, the koff turned out to be 0.00156 s⁻¹ and the kon came out at 373000 M⁻¹ s⁻¹. In addition, in [10], the Kd was 4.17 nM, the koff is 0.00156 s⁻¹ and the kon was found to be 373000 M⁻¹ s⁻¹.

B6: recombinant ms7G6, mouse IgG2a (antibody, V domains shown)
VH: B5 VH
VL: B5 VL
notes: Recombinant material, mouse IgG2a
Take B6: in [9], the dissociation constant Kd was determined as 2.73 nM, the off-rate (koff) came out at 0.0015 s⁻¹ and the kon worked out at 549000 M⁻¹ s⁻¹. For the same molecule, in experiment [10], the Kd is 2.73 nM, the koff was found to be 0.0015 s⁻¹ and the kon is 549000 M⁻¹ s⁻¹.
